This note sets out measurements from patent US20210246204A1 (Alector, published 2021).

Assay [1] deals with T1, histidine-tagged human Siglec-7 (NovoProtein) (human, UniProt Q9Y286 19-353).
T1 construct: Bought protein; also called recombinant human Siglec-7; recombinant Siglec-7; not shown: histidine tag
The assay is described as follows: BLI, antibody captured. Here is the method:
In this assay, the humanized antibodies were compared directly to S7AB. Briefly, the antibodies were captured on anti-human or anti-mouse IgG Fc Biosensors (Pall ForteBio). Varying concentrations (0-100 nM) of histidine-tagged human Siglec-7 (NovoProtein) were then bound to the captured anti-Siglec-7 surface (200 s association time, 900 s dissociation time). Multi-concentration kinetic analysis was performed using a 1:1 interaction model to extract association and dissociation rate constants (kₐ and kd, respectively) for each antibody. Apparent affinity constants (KD) were calculated from the ratio kd/kₐ.
The affinities of S7AB-H8 and variants S7AB-H8.1 through S7AB-H8.45 for human Siglec-7 were measured by BioLayer Interferometry according to the method described in Example 1 above.
Background: Biolayer interferometry detects binding as a change in optical thickness at a sensor tip.

In assay [2] the target is human Siglec-7 on primary human monocyte-derived dendritic cells (human, UniProt Q9Y286 19-467). The assay is described as follows: cell-based or functional assay.
Sequence of human Siglec-7 on primary human monocyte-derived dendritic cells (Q9Y286 19-467): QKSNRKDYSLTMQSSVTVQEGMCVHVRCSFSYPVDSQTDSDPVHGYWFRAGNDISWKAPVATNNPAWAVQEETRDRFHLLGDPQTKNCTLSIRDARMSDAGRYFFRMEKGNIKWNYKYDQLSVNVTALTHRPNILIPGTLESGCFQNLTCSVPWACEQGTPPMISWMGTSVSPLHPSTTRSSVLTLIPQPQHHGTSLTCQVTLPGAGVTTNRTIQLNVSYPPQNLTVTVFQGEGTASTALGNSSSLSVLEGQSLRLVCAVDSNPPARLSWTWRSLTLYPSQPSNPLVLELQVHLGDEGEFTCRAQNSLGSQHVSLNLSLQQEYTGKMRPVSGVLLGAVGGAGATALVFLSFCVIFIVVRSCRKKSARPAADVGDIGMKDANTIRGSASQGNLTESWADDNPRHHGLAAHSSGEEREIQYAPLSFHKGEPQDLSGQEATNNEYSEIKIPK

What is called Kd is a measure of binding affinity in units of concentration. Read a low Kd as tighter binding. For orientation: koff means a measure of how fast the partners let go of each other. High values mean a short-lived complex, low ones a long-lived complex. The kon is the second-order rate constant of association. A low value points to slower complex formation.

T1 sequence (Q9Y286 19-353 limits assumed): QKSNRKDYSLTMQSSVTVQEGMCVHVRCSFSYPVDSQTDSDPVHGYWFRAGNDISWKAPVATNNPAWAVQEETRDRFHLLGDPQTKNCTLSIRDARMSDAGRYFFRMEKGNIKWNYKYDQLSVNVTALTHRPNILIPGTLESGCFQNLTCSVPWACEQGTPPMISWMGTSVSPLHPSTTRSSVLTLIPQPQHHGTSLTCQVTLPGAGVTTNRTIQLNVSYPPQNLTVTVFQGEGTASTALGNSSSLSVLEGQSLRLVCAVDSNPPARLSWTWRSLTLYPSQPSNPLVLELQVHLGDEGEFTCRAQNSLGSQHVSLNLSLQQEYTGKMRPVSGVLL

B1: S7AB-H8.28 (antibody, V domains shown)
VH: QVQLVQSGAEVKKPGASVKVSCKASGYAFTGYWMNWVRQAPGQGLEWIGRIFPGLGHTNYAQKFQGRATLTEDTSTSTAYMELSSLRSEDTAVYYCARDYSDYYFDYWGQGTLVTVSS
VL: DIQMTQSPSSLSASVGDRVTITCRASQDANTYLNWYQQKPGKAPKLLIYYTSRLHSGVPSRFSGSGSGTDYTLTISSLQPEDFATYYCQQGNLLPWTFGQGTKLEIK
In the case of B1, in assay [1], the affinity, expressed as Kd, was 159 pM; the “fold improvement over S7AB-H8” value came out at 6.6 fold; the koff was found to be 3.51e-05 s⁻¹; the kon is 221000 M⁻¹ s⁻¹. Further, in assay [2], the “Fold increase in potency compared to AB-H8” value (from here on “Fold increase … to AB-H8”) stood at 4.6 fold; the “Fold increase in potency compared to Chimeric Ab” value (“Fold increase … to Chimeric Ab” for short) was determined as 13.7 fold; the “Maximal downregulation (% Siglec-7 remaining)” value came out at 17%; the “Receptor downregulation, (EC50) (pM)” value is 74.6 pM.

B2: S7AB-H8.38 (antibody, V domains shown)
VH: QVQLVQSGAEVKKPGASVKVSCKASGYAFTGYWMNWVRQAPGQGLEWIGRIFPGLGHTNYAQKFQGRATLTEDTSTSTAYMELSSLRSEDTAVYYCARDYSDYYFDYWGQGTLVTVSS
VL: DIQMTQSPSSLSASVGDRVTITCRGSQDINTYLNWYQQKPGKAPKLLIYYTSRLHSGVPSRFSGSGSGTDYTLTISSLQPEDFATYYCQQGNVLPWTFGQGTKLEIK
With B2, in assay [1], the Kd worked out at 324 pM, the “fold improvement over S7AB-H8” value is 3.2 fold, the koff is 7.4e-05 s⁻¹ and the kon was found to be 229000 M⁻¹ s⁻¹. Moreover, in assay [2], the “Fold increase … to AB-H8” value amounted to 4.8 fold; the “Fold increase … to Chimeric Ab” value turned out to be 14.5 fold; the “Maximal downregulation (% Siglec-7 remaining)” value is 17.1%; the “Receptor downregulation, (EC50) (pM)” value was determined as 70.4 pM.

B3: S7AB-H8.36 (antibody, V domains shown)
VH: QVQLVQSGAEVKKPGASVKVSCKASGYAFTETWMNWVRQAPGQGLEWIGRIFPGLGHTNYAQKFQGRATLTEDTSTSTAYMELSSLRSEDTAVYYCARDYSDYYFDYWGQGTLVTVSS
VL: DIQMTQSPSSLSASVGDRVTITCRGSQDINTYLNWYQQKPGKAPKLLIYYTSRLHSGVPSRFSGSGSGTDYTLTISSLQPEDFATYYCQQGNVLPWTFGQGTKLEIK
On to B3, for which, in assay [1], the Kd turned out to be 605 pM, the “fold improvement over S7AB-H8” value was 1.7 fold, the koff is 9.81e-05 s⁻¹ and the kon was found to be 162000 M⁻¹ s⁻¹. Further, in assay [2], the “Fold increase … to AB-H8” value was found to be 2.7 fold; the “Fold increase … to Chimeric Ab” value was 8.2 fold; the “Maximal downregulation (% Siglec-7 remaining)” value was found to be 11.4%; the “Receptor downregulation, (EC50) (pM)” value was determined as 125 pM.

B4: S7AB-H8.35 (antibody, V domains shown)
VH: QVQLVQSGAEVKKPGASVKVSCKASGYAFTEAWMNWVRQAPGQGLEWIGRIFPGYGHTNYAQKFQGRATLTEDTSTSTAYMELSSLRSEDTAVYYCARDYSDYYFDYWGQGTLVTVSS
VL: DIQMTQSPSSLSASVGDRVTITCRGSQDINTYLNWYQQKPGKAPKLLIYYTSRLHSGVPSRFSGSGSGTDYTLTISSLQPEDFATYYCQQGGTLPWTFGQGTKLEIK
Turning to B4, in assay [1], the Kd turned out to be 607 pM, the “fold improvement over S7AB-H8” value came to 1.7 fold, the koff stood at 6.57e-05 s⁻¹ and the kon is 108000 M⁻¹ s⁻¹. Further, in assay [2], the “Fold increase … to AB-H8” value worked out at 1.6 fold; the “Fold increase … to Chimeric Ab” value was found to be 5 fold; the “Maximal downregulation (% Siglec-7 remaining)” value worked out at 9.3%; the “Receptor downregulation, (EC50) (pM)” value was found to be 206 pM.

B5: S7AB-H8.29 (antibody, V domains shown)
VH: QVQLVQSGAEVKKPGASVKVSCKASGYAFTAAWMNWVRQAPGQGLEWIGRIFPGLGHTNYAQKFQGRATLTEDTSTSTAYMELSSLRSEDTAVYYCARDYSDYYFDYWGQGTLVTVSS
VL: DIQMTQSPSSLSASVGDRVTITCRASQDANTYLNWYQQKPGKAPKLLIYYTSRLHSGVPSRFSGSGSGTDYTLTISSLQPEDFATYYCQQGNLLPWTFGQGTKLEIK
Regarding B5, in assay [1], the affinity, expressed as Kd, was 263 pM; the “fold improvement over S7AB-H8” value worked out at 4 fold; the koff was determined as 4e-05 s⁻¹; the kon is 152000 M⁻¹ s⁻¹. Besides, in assay [2], the “Fold increase … to AB-H8” value is 6.7 fold; the “Fold increase … to Chimeric Ab” value was determined as 20 fold; the “Maximal downregulation (% Siglec-7 remaining)” value was 3.7%; the “Receptor downregulation, (EC50) (pM)” value was 51.1 pM.

B6: S7AB-H8.34 (antibody, V domains shown)
VH: QVQLVQSGAEVKKPGASVKVSCKASGYAFTAAWMNWVRQAPGQGLEWIGRIFPGLGHTNYAQKFQGRATLTEDTSTSTAYMELSSLRSEDTAVYYCARDYSDYYFDYWGQGTLVTVSS
VL: DIQMTQSPSSLSASVGDRVTITCRGSQDINTYLNWYQQKPGKAPKLLIYYTSRLHSGVPSRFSGSGSGTDYTLTISSLQPEDFATYYCQQGGTLPWTFGQGTKLEIK
For B6, in assay [1], binding was characterised by a dissociation constant (Kd) of 237 pM, the “fold improvement over S7AB-H8” value came out at 4.4 fold, the koff is 2.81e-05 s⁻¹ and the kon was determined as 119000 M⁻¹ s⁻¹. Also, in assay [2], the “Fold increase … to AB-H8” value was found to be 2.9 fold; the “Fold increase … to Chimeric Ab” value was 8.7 fold; the “Maximal downregulation (% Siglec-7 remaining)” value is 3.6%; the “Receptor downregulation, (EC50) (pM)” value stood at 118 pM.

B7: S7AB-H8.33 (antibody, V domains shown)
VH: QVQLVQSGAEVKKPGASVKVSCKASGYAFTGYWMNWVRQAPGQGLEWIGRIFPGLGHTNYAQKFQGRATLTEDTSTSTAYMELSSLRSEDTAVYYCARDYSDYYFDYWGQGTLVTVSS
VL: DIQMTQSPSSLSASVGDRVTITCRGSQDINTYLNWYQQKPGKAPKLLIYYTSRLHSGVPSRFSGSGSGTDYTLTISSLQPEDFATYYCQQGGTLPWTFGQGTKLEIK
Regarding B7, in assay [1], the Kd worked out at 326 pM, the “fold improvement over S7AB-H8” value worked out at 3.2 fold, the koff was 7.64e-05 s⁻¹ and the kon is 235000 M⁻¹ s⁻¹. Besides, in assay [2], the “Fold increase … to AB-H8” value turned out to be 5.2 fold; the “Fold increase … to Chimeric Ab” value was found to be 15.7 fold; the “Maximal downregulation (% Siglec-7 remaining)” value is 17.2%; the “Receptor downregulation, (EC50) (pM)” value was determined as 65.3 pM.

B8: S7AB-H8.37 (antibody, V domains shown)
VH: QVQLVQSGAEVKKPGASVKVSCKASGYAFTMAWMNWVRQAPGQGLEWIGRIFPGYGHTNYAQKFQGRATLTEDTSTSTAYMELSSLRSEDTAVYYCARDYSDYYFDYWGQGTLVTVSS
VL: DIQMTQSPSSLSASVGDRVTITCRGSQDINTYLNWYQQKPGKAPKLLIYYTSRLHSGVPSRFSGSGSGTDYTLTISSLQPEDFATYYCQQGNVLPWTFGQGTKLEIK
On to B8, for which, in assay [1], the Kd worked out at 135 pM, the “fold improvement over S7AB-H8” value worked out at 7.8 fold, the koff stood at 2.5e-05 s⁻¹ and the kon was determined as 186000 M⁻¹ s⁻¹. In addition, in assay [2], the “Fold increase … to AB-H8” value was 4.8 fold; the “Fold increase … to Chimeric Ab” value was found to be 14.3 fold; the “Maximal downregulation (% Siglec-7 remaining)” value is 3.4%; the “Receptor downregulation, (EC50) (pM)” value stood at 71.4 pM.

B9: S7AB-H8.32 (antibody, V domains shown)
VH: QVQLVQSGAEVKKPGASVKVSCKASGYAFTMAWMNWVRQAPGQGLEWIGRIFPGYGHTNYAQKFQGRATLTEDTSTSTAYMELSSLRSEDTAVYYCARDYSDYYFDYWGQGTLVTVSS
VL: DIQMTQSPSSLSASVGDRVTITCRGSQDINTYLNWYQQKPGKAPKLLIYYTSRLHSGVPSRFSGSGSGTDYTLTISSLQPEDFATYYCQQGGTLPWTFGQGTKLEIK
B9: in assay [1], the Kd is 356 pM, the “fold improvement over S7AB-H8” value came out at 2.9 fold, the koff stood at 3.93e-05 s⁻¹ and the kon amounted to 111000 M⁻¹ s⁻¹. Further, in assay [2], the “Fold increase … to AB-H8” value amounted to 3.7 fold; the “Fold increase … to Chimeric Ab” value amounted to 11.2 fold; the “Maximal downregulation (% Siglec-7 remaining)” value was 3.4%; the “Receptor downregulation, (EC50) (pM)” value was 91.3 pM.

B10: S7AB-H8.30 (antibody, V domains shown)
VH: QVQLVQSGAEVKKPGASVKVSCKASGYAFTEAWMNWVRQAPGQGLEWIGRIFPGYGHTNYAQKFQGRATLTEDTSTSTAYMELSSLRSEDTAVYYCARDYSDYYFDYWGQGTLVTVSS
VL: DIQMTQSPSSLSASVGDRVTITCRASQDANTYLNWYQQKPGKAPKLLIYYTSRLHSGVPSRFSGSGSGTDYTLTISSLQPEDFATYYCQQGNLLPWTFGQGTKLEIK
As to B10, in assay [1], the affinity, expressed as Kd, was 395 pM; the “fold improvement over S7AB-H8” value came out at 2.7 fold; the koff turned out to be 4.13e-05 s⁻¹; the kon came to 105000 M⁻¹ s⁻¹. In assay [2], the “Fold increase … to AB-H8” value was determined as 2.7 fold; the “Fold increase … to Chimeric Ab” value turned out to be 8.2 fold; the “Maximal downregulation (% Siglec-7 remaining)” value was 8.2%; the “Receptor downregulation, (EC50) (pM)” value was determined as 126 pM.

B11: S7AB-H8.31 (antibody, V domains shown)
VH: QVQLVQSGAEVKKPGASVKVSCKASGYAFTETWMNWVRQAPGQGLEWIGRIFPGLGHTNYAQKFQGRATLTEDTSTSTAYMELSSLRSEDTAVYYCARDYSDYYFDYWGQGTLVTVSS
VL: DIQMTQSPSSLSASVGDRVTITCRGSQDINTYLNWYQQKPGKAPKLLIYYTSRLHSGVPSRFSGSGSGTDYTLTISSLQPEDFATYYCQQGGTLPWTFGQGTKLEIK
With B11, in assay [1], the Kd was found to be 742 pM, the “fold improvement over S7AB-H8” value amounted to 1.4 fold, the koff came to 0.000107 s⁻¹ and the kon worked out at 145000 M⁻¹ s⁻¹. Besides, in assay [2], the “Fold increase … to AB-H8” value was found to be 2.4 fold; the “Fold increase … to Chimeric Ab” value worked out at 7.2 fold; the “Maximal downregulation (% Siglec-7 remaining)” value is 10.5%; the “Receptor downregulation, (EC50) (pM)” value was 143 pM.
